Results on 67 sequences are retold here after the supplement of paper PMC10724198.

The subject of this data set is Saccharomyces cerevisiae. In words: protein stability index of tFT-peptide fusion (C-terminal peptide) (PSI (0-1 scale)); higher = more stable (slower turnover). The following applies: temperature: 30 C. The procedure: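 MPS profiling in S. cerevisiae of the yeast C-terminome library: the last 12 aa of each annotated ORF are fused to the C-terminus of a sfGFP-mCherry timer, after a GGGS linker. Cells are FACS-sorted into 8 mCherry/sfGFP bins and deep-sequenced. PSI runs from 0 (unstable) to 1 (stable); wild type and das1Δ backgrounds, two technical replicates each.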

Setting [1] is: genetic background: das1 deletion.

± gives the standard deviation of the averaged measurements.

For the sequence RNQNSDRLNFQP [YBR138C C-terminal 12 aa], the protein stability index turned out to be 0.705 ± 0.0061 under setting [1] and 0.675 ± 0.016 (genetic background: wild type).

RPFYKRMFTKEK [HXT5 C-terminal 12 aa]: the protein stability index reads like this: under setting [1], 0.7313 ± 0.0058; (genetic background: wild type) 0.732 ± 0.033.

As to RPMPPIRGPKRR [SMD3 C-terminal 12 aa], the protein stability index was found to be 0.688 ± 0.017 under setting [1] and 0.724 ± 0.048 (genetic background: wild type).

Sequence “RPMQHMYINNFT [YAL026C-A C-terminal 12 aa]” displayed a protein stability index under setting [1] of 0.71914 ± 0.00059 and a protein stability index (genetic background: wild type) of 0.672 ± 0.011.

For RQLGSKQRKHRL [ECI1 C-terminal 12 aa], the protein stability index was determined as 0.786 ± 0.021 under setting [1] and 0.82 ± 0.026 (genetic background: wild type).

Sequence RQSRERALGIKR [PRP22 C-terminal 12 aa] yielded a protein stability index under setting [1] of 0.6929 ± 0.0054 and a protein stability index (genetic background: wild type) of 0.701 ± 0.036.

For RRCDDMLYYIQN [POP4 C-terminal 12 aa], the protein stability index was 0.716 ± 0.021 under setting [1] and 0.662 ± 0.011 (genetic background: wild type).

On to RRQMGIPTISQV [FHN1 C-terminal 12 aa], for which the protein stability index runs as follows: under setting [1], 0.681 ± 0.016; (genetic background: wild type) 0.6838 ± 0.0048.

For the sequence RSDTKEPLALLS [VPS20 C-terminal 12 aa], the protein stability index runs as follows: under setting [1], 0.6784 ± 0.0067; (genetic background: wild type) 0.646 ± 0.01.

RSHSRKNSLSLL [SPO24 C-terminal 12 aa]: the protein stability index was 0.72 ± 0.021 under setting [1] and 0.734 ± 0.028 (genetic background: wild type).

Regarding RTDPDRYSRLSV [ILT1 C-terminal 12 aa], the protein stability index worked out at 0.703 ± 0.027 under setting [1] and 0.7277 ± 0.0055 (genetic background: wild type).

Take “SCFSYSVGSKFT [YPR170W-A C-terminal 12 aa]”: the protein stability index worked out at 0.7068 ± 0.0063 under setting [1] and 0.703 ± 0.014 (genetic background: wild type).

With SDHCWDGCWWCR [AQY2 C-terminal 12 aa], the protein stability index runs as follows: under setting [1], 0.7424 ± 0.0017; (genetic background: wild type) 0.765 ± 0.041.

Turning to “SEEKRRLAPADI [YOL019W-A C-terminal 12 aa]”, the protein stability index stood at 0.68 ± 0.02 under setting [1] and 0.691 ± 0.024 (genetic background: wild type).

On to SELKGFVDEVDL [TFC1 C-terminal 12 aa], for which the protein stability index under setting [1] amounted to 0.7183 ± 0.0033 and the protein stability index (genetic background: wild type) stood at 0.721 ± 0.037.

With SESLSDSDLEIL [RAD24 C-terminal 12 aa], the protein stability index came out at 0.7105 ± 0.0068 under setting [1] and 0.666 ± 0.0085 (genetic background: wild type).

“SFCYVSACGRTQ [YFL021C-A C-terminal 12 aa]”: the protein stability index under setting [1] amounted to 0.677 ± 0.0097 and the protein stability index (genetic background: wild type) is 0.709 ± 0.018.

Regarding “SFFLRNFFPSLF [YDL159W-A C-terminal 12 aa]”, the protein stability index is, setting by setting: under setting [1], 0.756 ± 0.026; (genetic background: wild type) 0.246 ± 0.022.

For the sequence SFPIASSTTQTS [NST1 C-terminal 12 aa], the protein stability index was determined as 0.696 ± 0.021 under setting [1] and 0.689 ± 0.0087 (genetic background: wild type).

As to SFYDNSLQTWIV [RRT2 C-terminal 12 aa], the protein stability index under setting [1] is 0.7484 ± 0.0042 and the protein stability index (genetic background: wild type) was determined as 0.752 ± 0.029.

SGEAAEEAEDEE [RPS9B C-terminal 12 aa] showed a protein stability index under setting [1] of 0.652 ± 0.023 and a protein stability index (genetic background: wild type) of 0.664 ± 0.039.

Regarding SGIKEFFDNYKS [ARO9 C-terminal 12 aa], the protein stability index by setting is: under setting [1], 0.712 ± 0.027; (genetic background: wild type) 0.716 ± 0.025.

SGSGNSSKSNCC [SEC4 C-terminal 12 aa] gave a protein stability index under setting [1] of 0.691 ± 0.025 and a protein stability index (genetic background: wild type) of 0.674 ± 0.018.

With SHDMDFNNAGDF [HMS1 C-terminal 12 aa], the protein stability index by setting is: under setting [1], 0.707 ± 0.03; (genetic background: wild type) 0.7067 ± 0.0045.

As to SHPTEQTEVSSQ [MHR1 C-terminal 12 aa], the protein stability index by setting is: under setting [1], 0.697 ± 0.0079; (genetic background: wild type) 0.68 ± 0.02.

Take SICPAIRRKEDY [RDT1 C-terminal 12 aa]: the protein stability index by setting is: under setting [1], 0.699 ± 0.025; (genetic background: wild type) 0.659 ± 0.025.

For SIPGITGRAQIS [ORM1 C-terminal 12 aa], the protein stability index reads like this: under setting [1], 0.6983 ± 0.0014; (genetic background: wild type) 0.6656 ± 0.0065.

Turning to SIYDGTEEKIVY [DAL4 C-terminal 12 aa], the protein stability index by setting is: under setting [1], 0.689 ± 0.018; (genetic background: wild type) 0.705 ± 0.01.

As to SKLGINSGLCTN [ESL1 C-terminal 12 aa], the protein stability index is 0.683 ± 0.01 under setting [1] and 0.688 ± 0.03 (genetic background: wild type).

For SLCMEAGLVNEN [YCF1 C-terminal 12 aa], the protein stability index stood at 0.6959 ± 0.0021 under setting [1] and 0.663 ± 0.037 (genetic background: wild type).

Turning to SLDITEDWEVIF [ROT2 C-terminal 12 aa], the protein stability index is, setting by setting: under setting [1], 0.725 ± 0.023; (genetic background: wild type) 0.7587 ± 0.0031.

Regarding SLEKELISRGYR [CDC73 C-terminal 12 aa], the protein stability index turned out to be 0.724 ± 0.0099 under setting [1] and 0.685 ± 0.02 (genetic background: wild type).

SLKNYHNNTAQA [DBP6 C-terminal 12 aa] had a protein stability index under setting [1] of 0.688 ± 0.031 and a protein stability index (genetic background: wild type) of 0.68 ± 0.0075.

With SLNRPAERGGNR [YNL143C C-terminal 12 aa], the protein stability index was 0.69578 ± 0.00021 under setting [1] and 0.688 ± 0.041 (genetic background: wild type).

Turning to SLPRQAGGRKKK [GLC7 C-terminal 12 aa], the protein stability index is 0.715 ± 0.033 under setting [1] and 0.668 ± 0.052 (genetic background: wild type).

In the case of SLQVILEFVSQH [SXM1 C-terminal 12 aa], the protein stability index is, setting by setting: under setting [1], 0.654 ± 0.029; (genetic background: wild type) 0.6248 ± 0.0024.

Regarding SLYPRFSGRCKP [DED81 C-terminal 12 aa], the protein stability index was found to be 0.703 ± 0.011 under setting [1] and 0.6745 ± 0.0059 (genetic background: wild type).

On to SMVSCLLTLYVL [GTT3 C-terminal 12 aa], for which the protein stability index reads like this: under setting [1], 0.4741 ± 0.0017; (genetic background: wild type) 0.4796 ± 0.0038.

In the case of SNENARNNNPYL [FLC2 C-terminal 12 aa], the protein stability index under setting [1] is 0.6906 ± 0.0056 and the protein stability index (genetic background: wild type) worked out at 0.705 ± 0.043.

SNFSRTLGLEFI [YGL041C C-terminal 12 aa] registered a protein stability index under setting [1] of 0.711 ± 0.0098 and a protein stability index (genetic background: wild type) of 0.716 ± 0.077.

With SNSSICFPLTIF [YKL136W C-terminal 12 aa], the protein stability index stood at 0.6337 ± 0.0033 under setting [1] and 0.2798 ± 0.0007 (genetic background: wild type).

Take SNSSKNRMNNYR [SPT6 C-terminal 12 aa]: the protein stability index is, setting by setting: under setting [1], 0.702 ± 0.017; (genetic background: wild type) 0.721 ± 0.034.

Take SPISVDFSSYLS [NBP1 C-terminal 12 aa]: the protein stability index was 0.734 ± 0.015 under setting [1] and 0.72 ± 0.058 (genetic background: wild type).

For SRDYEETEYSVI [SPP381 C-terminal 12 aa], the protein stability index under setting [1] turned out to be 0.709 ± 0.025 and the protein stability index (genetic background: wild type) was found to be 0.687 ± 0.062.

As to SRRRPFIGPETV [YMR057C C-terminal 12 aa], the protein stability index came to 0.709 ± 0.037 under setting [1] and 0.703 ± 0.0072 (genetic background: wild type).

For the sequence SRVDEVVTKYSH [AAH1 C-terminal 12 aa], the protein stability index stood at 0.7 ± 0.029 under setting [1] and 0.667 ± 0.028 (genetic background: wild type).

With SSANIDINSIAK [SPO22 C-terminal 12 aa], the protein stability index by setting is: under setting [1], 0.7 ± 0.04; (genetic background: wild type) 0.729 ± 0.11.

As for SSASPEVDCRCG [YLR444C C-terminal 12 aa], the protein stability index stood at 0.705 ± 0.0094 under setting [1] and 0.7312 ± 0.0057 (genetic background: wild type).

SSFSLSLPRLNQ [SPT7 C-terminal 12 aa]: the protein stability index is 0.6893 ± 0.0022 under setting [1] and 0.675 ± 0.028 (genetic background: wild type).

As to SSIQDLLSKLAN [RTT103 C-terminal 12 aa], the protein stability index worked out at 0.691 ± 0.02 under setting [1] and 0.7927 ± 0.0052 (genetic background: wild type).

On to SSLPYDILPALL [YGL199C C-terminal 12 aa], for which the protein stability index under setting [1] was found to be 0.703 ± 0.004 and the protein stability index (genetic background: wild type) amounted to 0.6882 ± 0.0011.

Regarding SSSSTSSSATKN [TPS1 C-terminal 12 aa], the protein stability index came out at 0.703 ± 0.017 under setting [1] and 0.685 ± 0.047 (genetic background: wild type).

Take STFSKPFSTISK [VHR2 C-terminal 12 aa]: the protein stability index reads like this: under setting [1], 0.6906 ± 0.0026; (genetic background: wild type) 0.682 ± 0.059.

As for STHGPGIVIDFA [MRPL1 C-terminal 12 aa], the protein stability index was found to be 0.724 ± 0.011 under setting [1] and 0.761 ± 0.089 (genetic background: wild type).

Take STLAGEWRLIIA [YBR284W C-terminal 12 aa]: the protein stability index by setting is: under setting [1], 0.498 ± 0.0089; (genetic background: wild type) 0.518 ± 0.019.

Turning to SVSDPVKSEDSS [NCB2 C-terminal 12 aa], the protein stability index under setting [1] is 0.68 ± 0.034 and the protein stability index (genetic background: wild type) amounted to 0.689 ± 0.033.

Take SVYEHEHEKTFI [FUR4 C-terminal 12 aa]: the protein stability index under setting [1] came out at 0.7127 ± 0.0018 and the protein stability index (genetic background: wild type) was 0.706 ± 0.0091.

With SWSGDNEAHRWT [NPT1 C-terminal 12 aa], the protein stability index is, setting by setting: under setting [1], 0.716 ± 0.023; (genetic background: wild type) 0.686 ± 0.016.

Consider TAEEQEQSACQC [YPT6 C-terminal 12 aa], for which the protein stability index runs as follows: under setting [1], 0.6863 ± 0.0043; (genetic background: wild type) 0.687 ± 0.021.

On to TAESDDDEEDDE [TIF5 C-terminal 12 aa], for which the protein stability index under setting [1] was determined as 0.688 ± 0.026 and the protein stability index (genetic background: wild type) turned out to be 0.709 ± 0.052.

Consider TATSSSIILSDK [SSN2 C-terminal 12 aa], for which the protein stability index came to 0.713 ± 0.032 under setting [1] and 0.665 ± 0.045 (genetic background: wild type).

Sequence TDELWEMLLDQA [MET12 C-terminal 12 aa] had a protein stability index under setting [1] of 0.762 ± 0.039 and a protein stability index (genetic background: wild type) of 0.723 ± 0.072.

Take TELRHKRTGGKH [ILV2 C-terminal 12 aa]: the protein stability index runs as follows: under setting [1], 0.691 ± 0.0092; (genetic background: wild type) 0.7268 ± 0.002.

Turning to TGKDVMKGALGF [SRO7 C-terminal 12 aa], the protein stability index was 0.6953 ± 0.0023 under setting [1] and 0.667 ± 0.024 (genetic background: wild type).

As to TGRDMMKSAVGF [SRO77 C-terminal 12 aa], the protein stability index by setting is: under setting [1], 0.714 ± 0.015; (genetic background: wild type) 0.661 ± 0.016.

In the case of TGTSTEAPSAAN [NCL1 C-terminal 12 aa], the protein stability index under setting [1] was found to be 0.6661 ± 0.00092 and the protein stability index (genetic background: wild type) was 0.6578 ± 0.0053.

The sequence THQKKIAKKKHQ [YPR015C C-terminal 12 aa] returned a protein stability index under setting [1] of 0.741 ± 0.053 and a protein stability index (genetic background: wild type) of 0.695 ± 0.014.
